4 substances from patent US20240327815A1 can be followed below.

Assay [1] addresses B.1.1.7 (Alpha) SARS-CoV-2 spike protein, plate-coated (MSD) (SARS-CoV-2) (UniProt P0DTC2). In words: MSD competition vs labelled ACE2.
Assay [2] has as its target B.1.351 (Beta) SARS-CoV-2 spike protein, plate-coated (MSD) (SARS-CoV-2) (UniProt P0DTC2). In words: MSD competition vs labelled ACE2.
Assay [3] addresses Delta SARS-CoV-2 spike protein, plate-coated (MSD) (SARS-CoV-2) (UniProt P0DTC2). In words: MSD competition vs labelled ACE2.
For assay [4], the target named is Omicron SARS-CoV-2 spike protein, plate-coated (MSD) (SARS-CoV-2) (UniProt P0DTC2). In words: MSD competition vs labelled ACE2.
In assay [5] the target is SARS-CoV-2 Delta (B.1.617.2) spike RBD (SPR) (SARS-CoV-2) (UniProt P0DTC2). In words: SPR. In general terms: In SPR one partner is held on a chip, and binding of the other changes the refractive index at the surface.
For assay [6] the target is unchanged. In words: SPR, 1:1 model.
The target of assay [7] is Alpha SARS-CoV-2 spike on pseudotyped lentivirus (SARS-CoV-2) (UniProt P0DTC2). In words: cell-based or functional assay.
For assay [8], the target named is Beta SARS-CoV-2 spike on pseudotyped lentivirus (SARS-CoV-2) (UniProt P0DTC2). In words: cell-based or functional assay.

As usually defined, the IC50 is the concentration that inhibits the measured activity by half. For orientation: Kd means the concentration at which binding is half-saturated.

With Bamlanivimab + Etesevimab, the IC50 in assay [1] came to 80 pM; in assay [2], 310 pM; in assay [3] it was 160 pM; in assay [4] it was 590 pM.
Regarding REGN10933 (Casirivimab) (antibody), the dissociation constant (Kd) in assay [5] and in assay [6] was 69.6 pM throughout.
As for REGN10987 (Imdevimab) (antibody), the Kd in assay [5] and in assay [6] was 105 pM throughout.
For the substance Sotrovimab (antibody), the values for the Pseudovirus Neutralization (IC50, nM) in assay [7] and in assay [8] were 3.32 nM and 0.01 nM, respectively.
